{"source": "patent JP2014043405A", "about": "(dated 2014)", "binders": {"B1": {"name": "IL6R-BP423/IL6R-L (antibody, human IgG1)", "heavy": "QVQLQESGPGLVKPSETLSLTCAVSGHSISHDHAWSWVRQPPGEGLEWIGFISYSGITNYNPSLQGRVTISRDNSKNTLYLQMNSLRAEDTAVYYCARSLARTTAMDYWGEGTLVTVSSASTKGPSVFPLAPSSKSTSGGTAALGCLVKDYFPEPVTVSWNSGALTSGVHTFPAVLQSSGLYSLSSVVTVPSSSLGTQTYICNVNHKPSNTKVDKKVEPKSCDKTHTCPPCPAPDLLGDDSVFLFPPKPKDTLMISRTPEVTCVVVDVAEEDGEVKFNWYVDGVEVHNAKTKPREEQYNSTYRVVSVLTVLHQDWLNGKEYKCKVSNKALPRPIEKTISKAKGQPREPQVYTLPPSRDELTKNQVSLTCLVKGFYPSDIAVEWESNGQPENNYKTTPPVLDSDGSFFLYSKLTVDKSRWQQGNVFSCSVMHEALHNHYTQESLSLSP", "light": "DIQMTQSPSSLSASVGDRVTITCRASQDISSYLNWYQQKPGKAPKLLIYYTSRLHSGVPSRFSGSGSGTDFTFTISSLQPEDIATYYCQQGNTLPYTFGQGTKVEIK"}, "B2": {"name": "IL6R-BP231/IL6R-L (antibody)", "chain 1": "B1 heavy with D235E, A269S, E270D, Y298D", "chain 2": "not shown"}, "B3": {"name": "IL6R-BP234/IL6R-L (antibody)", "chain 1": "B1 heavy with L236Y, A269Q, E270D, Y298D, K328D, R332K", "chain 2": "not shown"}, "B4": {"name": "IL6R-BP473/IL6R-L (antibody)", "chain 1": "B1 heavy with A269S, E270D, Y298D, A329G", "chain 2": "not shown"}, "B5": {"name": "IL6R-G4d/IL6R-L (antibody, human IgG4 S228P)", "heavy": "not shown", "light": "B1 light"}, "B6": {"name": "IL6R-BP493/IL6R-L (antibody)", "chain 1": "B1 heavy with D235E, D239G, V266I, Y298D, R332A", "chain 2": "not shown"}, "B7": {"name": "IL6R-BP479/IL6R-L (antibody)", "chain 1": "B1 heavy with V266I, V268L, R332A", "chain 2": "not shown"}, "B8": {"name": "IL6R-BP458/IL6R-L (antibody, human IgG1)", "heavy": "B1 heavy with P398Q", "light": "B1 light"}, "B9": {"name": "IL6R-BP454/IL6R-L (antibody, human IgG1)", "heavy": "B1 heavy with P398K", "light": "B1 light"}, "B10": {"name": "IL6R-BP455/IL6R-L (antibody, human IgG1)", "heavy": "B1 heavy with P398L", "light": "B1 light"}, "B11": {"name": "IL6R-BP267/IL6R-LにS267Eの改変が加えられた改変体 (antibody, human IgG1)", "heavy": "B1 heavy with A269E, R332A", "light": "B1 light", "notes": "also called IL6R-BP267 + S267E"}, "B12": {"name": "IL6R-BP253/IL6R-L (antibody, human IgG1)", "heavy": "B1 heavy with D235E, D239G, D240P, A269E, E270H, G273P, L330F, R332A", "light": "B1 light", "notes": "comparison antibody with the known FcγRIIb-enhancing substitutions"}, "B13": {"name": "IL6R-BP267/IL6R-LにS267Gの改変が加えられた改変体 (antibody, human IgG1)", "heavy": "B1 heavy with A269G, R332A", "light": "B1 light", "notes": "also called IL6R-BP267 + S267G"}, "B14": {"name": "IL6R-BP450/IL6R-L (antibody, human IgG1)", "heavy": "B1 heavy with P398F", "light": "B1 light"}, "B15": {"name": "IL6R-BP448/IL6R-L (antibody, human IgG1)", "heavy": "B1 heavy with P398D", "light": "B1 light"}, "B16": {"name": "IL6R-BP267/IL6R-LにE269Dの改変が加えられた改変体 (antibody, human IgG1)", "heavy": "B1 heavy with A269S, E271D, R332A", "light": "B1 light", "notes": "also called IL6R-BP267 + E269D"}, "B17": {"name": "IL6R-BP267/IL6R-LにV264Iの改変が加えられた改変体 (antibody, human IgG1)", "heavy": "B1 heavy with V266I, A269S, R332A", "light": "B1 light", "notes": "also called IL6R-BP267 + V264I"}, "B18": {"name": "IL6R-BP449/IL6R-L (antibody, human IgG1)", "heavy": "B1 heavy with P398E", "light": "B1 light"}, "B19": {"name": "IL6R-BP267/IL6R-LにS267Aの改変が加えられた改変体 (antibody, human IgG1)", "heavy": "B1 heavy with R332A", "light": "B1 light", "notes": "also called IL6R-BP267 + S267A"}, "B20": {"name": "IL6R-BP267/IL6R-LにV266Mの改変が加えられた改変体 (antibody, human IgG1)", "heavy": "B1 heavy with V268M, A269S, R332A", "light": "B1 light", "notes": "also called IL6R-BP267 + V266M"}, "B21": {"name": "IL6R-BP453/IL6R-L (antibody, human IgG1)", "heavy": "B1 heavy with P398I", "light": "B1 light"}, "B22": {"name": "IL6R-BP459/IL6R-L (antibody, human IgG1)", "heavy": "B1 heavy with P398R", "light": "B1 light"}, "B23": {"name": "IL6R-BP464/IL6R-L (antibody, human IgG1)", "heavy": "B1 heavy with P398Y", "light": "B1 light"}, "B24": {"name": "IL6R-BP456/IL6R-L (antibody, human IgG1)", "heavy": "B1 heavy with P398M", "light": "B1 light"}, "B25": {"name": "IL6R-BP267/IL6R-LにV266Fの改変が加えられた改変体 (antibody, human IgG1)", "heavy": "B1 heavy with V268F, A269S, R332A", "light": "B1 light", "notes": "also called IL6R-BP267 + V266F"}}, "key": {"[1]": {"biological_target": "T1, ヒトFcγRIIb (human, UniProt P31994 43-217)", "T1 construct": "extracellular domain; for the crystals it was expressed with kifunensine and its N-glycans trimmed with Endo F1; also called FcγRIIb細胞外領域", "T1 sequence (looked up)": "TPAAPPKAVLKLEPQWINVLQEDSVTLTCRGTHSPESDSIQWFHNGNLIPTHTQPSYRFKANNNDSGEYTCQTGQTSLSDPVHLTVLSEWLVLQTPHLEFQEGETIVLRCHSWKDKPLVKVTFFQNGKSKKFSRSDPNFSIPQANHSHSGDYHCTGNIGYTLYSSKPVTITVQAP", "assay": "SPR, KD"}, "[2]": {"biological_target": "T1, ヒトFcγRIIb", "assay": "SPR; KD for FcγRIIaR divided by KD for FcγRIIb"}, "[3]": {"biological_target": "T1, ヒトFcγRIIb", "assay": "SPR, KD; reference IL6R-BP230/IL6R-L"}, "[4]": {"biological_target": "ヒトFcγRIa (human, UniProt P12314 16-292)", "sequence (P12314 16-292)": "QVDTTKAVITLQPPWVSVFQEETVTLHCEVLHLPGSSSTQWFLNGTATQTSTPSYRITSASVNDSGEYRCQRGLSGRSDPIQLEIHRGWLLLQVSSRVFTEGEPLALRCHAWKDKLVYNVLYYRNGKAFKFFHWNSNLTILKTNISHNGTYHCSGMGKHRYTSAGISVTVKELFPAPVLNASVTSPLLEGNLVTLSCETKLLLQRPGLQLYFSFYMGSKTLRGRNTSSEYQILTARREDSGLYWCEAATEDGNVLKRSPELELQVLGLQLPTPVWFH", "assay": "SPR, KD"}, "[5]": {"biological_target": "T2, ヒトFcγRIIa (H) (human, UniProt P12318 34-217)", "T2 construct": "extracellular domain; also called FcγRIIa H型", "T2 sequence (looked up)": "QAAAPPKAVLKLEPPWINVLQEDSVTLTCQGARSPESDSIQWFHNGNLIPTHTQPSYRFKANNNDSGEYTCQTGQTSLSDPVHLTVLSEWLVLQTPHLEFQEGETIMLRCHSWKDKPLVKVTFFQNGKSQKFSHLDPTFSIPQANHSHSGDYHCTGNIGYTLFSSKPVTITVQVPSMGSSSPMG", "assay": "SPR, KD"}}, "note": "Where a chain is given by its changes, count along the chain named. Names and notes keep the numbering of the source.", "data": [{"binder": "B1", "values": [{"measurement": "binding result", "setting": "[1]", "result": "binds"}]}, {"binder": "B2", "values": [{"measurement": "KD (IIaR)/KD (IIb)", "setting": "[2]", "result": 32.2, "unit": "ratio"}]}, {"binder": "B3", "values": [{"measurement": "KD (IIaR)/KD (IIb)", "setting": "[2]", "result": 10, "unit": "ratio"}]}, {"binder": "B4", "values": [{"measurement": "fold enhancement of binding against IL6R-BP230/IL6R-L", "setting": "[3]", "result": 1.2, "unit": "fold"}]}, {"binder": "B5", "values": [{"measurement": "binding result", "setting": "[4]", "result": "binds"}, {"measurement": "binding result", "setting": "[5]", "result": "binds"}]}, {"binder": "B6", "values": [{"measurement": "KD (IIaR)/KD (IIb)", "setting": "[2]", "result": 52.1, "unit": "ratio"}]}, {"binder": "B7", "values": [{"measurement": "KD (IIaR)/KD (IIb)", "setting": "[2]", "result": 16.1, "unit": "ratio"}]}, {"binder": "B8", "values": [{"measurement": "binding result", "setting": "[1]", "result": "binds"}]}, {"binder": "B9", "values": [{"measurement": "binding result", "setting": "[1]", "result": "binds"}]}, {"binder": "B10", "values": [{"measurement": "binding result", "setting": "[1]", "result": "binds"}]}, {"binder": "B11", "values": [{"measurement": "binding result", "setting": "[1]", "result": "binds"}]}, {"binder": "B12", "values": [{"measurement": "binding result", "setting": "[4]", "result": "binds"}, {"measurement": "binding result", "setting": "[5]", "result": "binds"}]}, {"binder": "B13", "values": [{"measurement": "binding result", "setting": "[1]", "result": "binds"}]}, {"binder": "B14", "values": [{"measurement": "binding result", "setting": "[1]", "result": "binds"}]}, {"binder": "B15", "values": [{"measurement": "binding result", "setting": "[1]", "result": "binds"}]}, {"binder": "B16", "values": [{"measurement": "binding result", "setting": "[1]", "result": "binds"}]}, {"binder": "B17", "values": [{"measurement": "binding result", "setting": "[1]", "result": "binds"}]}, {"binder": "B18", "values": [{"measurement": "binding result", "setting": "[1]", "result": "binds"}]}, {"binder": "B19", "values": [{"measurement": "binding result", "setting": "[1]", "result": "binds"}]}, {"binder": "B20", "values": [{"measurement": "binding result", "setting": "[1]", "result": "binds"}]}, {"binder": "B21", "values": [{"measurement": "binding result", "setting": "[1]", "result": "binds"}]}, {"binder": "B22", "values": [{"measurement": "binding result", "setting": "[1]", "result": "binds"}]}, {"binder": "B23", "values": [{"measurement": "binding result", "setting": "[1]", "result": "binds"}]}, {"binder": "B24", "values": [{"measurement": "binding result", "setting": "[1]", "result": "binds"}]}, {"binder": "B25", "values": [{"measurement": "binding result", "setting": "[1]", "result": "binds"}]}]}
